Data: patent US8357523B2, “Beta-glucosidase variant enzymes and related polynucleotides” (Codexis, Inc., priority 2009, dated 2013)
Changes are numbered by the printed parent chain.

B1: 63 (protein)
chain: STAIAQEGAAPAAILHPEKWPRPATQRLIDPAVEKRVDALLKQLSVEEKVGQVIQGDIGTITPEDLRKYPLGSILAGGNSGPNGDDRAPPKEWLDLADAFYRVSLEKRPGHTPIPVLFGIDAVHGHGNIGSATIFPHNIALGATHDPELLWRIGEVTAVEMAATGIDWTFAPALSVVRDDRWGRTYEGFSEDPEIVAAYSAAIVEGVQGKFGSKDFMAPGRIVASAKHFLADGGTDQGRDQGDARISEDELIRIHNAGYPPAIDAGVLTVMASFSSWQGIKHHGHKQLLTDVLKGQMGFNGFIVGDWNAHDQVPGCTKFNCPTSLIAGLDMYMAADSWKQLYENTLAQVKDGTIPMARLDDAVRRILRVKVLAGLFEKPAPKDRPGLPGLETLGSPEHRAVGREAVRKSLVLLKNDKGTLPLSPKARVLVAGDGADNIGKQSGGWTISWQGTGNRNDEFPGATSILGGIRDAVADAGGSVEFDVAGQYKTKPDVAIVVFGEEPYAEFQGDVETLEYQPDQKQDLALLKKLKDQGIPVVAVFLSGRPMWVNPELNASDAFVAAWLPGTEGGGVADVLFTDKAGKVQHDFAGKLSYSWPRTAAQTTVNRGDADYNPLFAYGYGLTYKDKSKVGTLPEESGVPAEARQNAGIYFRAGALRLPGRFL
B2: 69 (protein)
chain: B1 chain with W151R, P219T
B3: 141 (protein)
chain: B1 chain with A143M, H145R, W151R, F211Y, P219V, S225C
B4: 149 (protein)
chain: B1 chain with N79D, N128K, H145R, D146S, W151R, V159Q, A201P, F211Y, S225C
B5: 155 (protein)
chain: B1 chain with N79D, H145R, W151R, A198S, S225C
B6: 139 (protein)
chain: B1 chain with A143M, H145R, W151R, A162T, F211Y, S225C
B7: 143 (protein)
chain: B1 chain with A143M, H145R, W151R, A198S, F211Y, S225C
B8: 152 (protein)
chain: B1 chain with N79D, H145R, W151R, V159Q, A201P, F211Y, I222A, S225C
B9: 159 (protein)
chain: B1 chain with N79D, H145R, W151R, A162T, A198S, S225C
B10: 140 (protein)
chain: B1 chain with N79D, A143M, H145R, W151R, V159Q, A201P, F211Y, P219V, S225C
B11: 72 (protein)
chain: B1 chain with V46F, W151R, I222A
B12: 151 (protein)
chain: B1 chain with A143M, H145R, W151R, A162T, A173C, A198S, F211Y, L514Q
B13: 134 (protein)
chain: B1 chain with N128K, A143M, H145R, W151R, V159E, A173C, A201P, F211Y, P219V
B14: 67 (protein)
chain: B1 chain with W151R, P219C
B15: 142 (protein)
chain: B1 chain with N79D, N128K, H145R, W151R, A201P, P219V, K491R
B16: 73b (protein)
chain: B1 chain with W151R, A202S
B17: 74 (protein)
chain: B1 chain with N128K, H145R, W151R, A201P, S225C
B18: 147 (protein)
chain: B1 chain with N79D, N128K, H145R, W151R, A173C, A198S, F211Y, I222S
B19: 138 (protein)
chain: B1 chain with N79D, N128K, H145R, D146S, W151R, V159E, F211Y, I222S, S225C
B20: 68 (protein)
chain: B1 chain with W151R, P219I
B21: 153 (protein)
chain: B1 chain with N79D, E92V, N128K, A143M, H145R, W151R, A201P, F211Y, I222S, S225C
B22: 70 (protein)
chain: B1 chain with W151R, P219L
B23: 76 (protein)
chain: B1 chain with N128K, H145R, W151R
B24: 146 (protein)
chain: B1 chain with N79D, A143M, H145R, W151R, V159Q, A201P, S225C, K378R
B25: 71 (protein)
chain: B1 chain with W151R, A202L
B26: 64 (protein)
chain: B1 chain with W151R, A162V
B27: 144 (protein)
chain: B1 chain with N128K, H145R, W151R, A162T, A198S, F211Y, P219V, S225C
B28: 150 (protein)
chain: B1 chain with N79D, I114V, N128K, H145R, W151R, A162T, A198S, F211Y, S225C
B29: 75 (protein)
chain: B1 chain with H145R, W151R, I222V
B30: 73a (protein)
chain: B1 chain with T60Y, W151R
B31: 145 (protein)
chain: B1 chain with N79D, H145R, D146S, W151R, V159E, A198S, F211Y, S225C
B32: 148 (protein)
chain: B1 chain with N79D, H145R, W151R, V159E, A198S, S225C
B33: 65 (protein)
chain: B1 chain with W151R, P219Q
B34: 156 (protein)
chain: B1 chain with N79D, N128K, A143M, H145R, W151R, A162T, A198S, I222S, S225C, Q237R
B35: 154 (protein)
chain: B1 chain with A143M, H145R, W151R, V159Q, A201P, F211Y, I222A, S225C, F229I
B36: 66 (protein)
chain: B1 chain with W151R, P219E
B37: 73 (protein)
chain: B1 chain with W151R, I222V
B38: 158 (protein)
chain: B1 chain with N79D, H145R, W151R, I166T, A198S, F211Y, S225C
B39: 136 (protein)
chain: STAIAQEGAAPAAILHPEKWPRPATQRLIDPAVEKRVDALLKQLSVEEKVGQVIQGDIGTITPEDLRKYPLGSILAGGNSGPNGDDRAPPKEWLDLADAFYRVSLEKRPGHTPIPVLFGIDAVHGHGKIGSATIFPHNIALGMTRDPELLRRIGEVTAQEMAATGIDWTFAPALSVVRDDRWGRTYEGFSEDPEIVASYSAAIVEGVQGKYGSKDFMAPGRAVACAKHFLADGGTDQGRDQGDARISEDELIRIHNAGYPPAIDAGVLTVMASFSSWQGIKHHGHKQLLTDVLKGQIGFNGFIVGDWNAHDQVPGCTKFNCPTSLIAGLDMYMAADSWKQLYENTLAQVKDGTIPMARLDDAVRRILRVKVLAGLFEKPAPKDRPGLPGLETLGSPEHRAVGREAVRKSLVLLKNDKGTLPLSPKARVLVAGDGADNIGKQSGGWTISWQGTGNRNDEFPGATSILGGIRDAVADAGGSVEFDVAGRYKTKPDVAIVVFGEEPYAEFQGDVETLEYQPDQKQDLALLKKLKDQGIPVVAVFLSGRPMWVNPELNASDAFVAAWLPGTEGGGVADVLFTDKAGKVQHDFAGKLSYSWPRTAAQTTVNRGDADYNPLFAYGYGLTYKDKSKVGTLPEESGVPAEARQNAGIYFRAGALRLPGRFL

Test: High throughput cellobiose assay: fold improvement in cellobiase activity of CelA variants over a control enzyme (Tables 2A-2D, 3, 5, 6, 7)
Assay type: biochemical
Conditions: 3.3 g/l cellobiose; for Fold improvement over wildtype CelA: 50° C. and pH 6.5, compared to native CelA (SEQ ID NO: 4); for Fold improvement over Control Variant No. 5 from Table 2A: 55° C. and pH 6.0

Row | Molecule | Fold improvement over wildtype CelA | Fold improvement over Control Variant No. 5 from Table 2A
1 | B1 | + (+ = 1.1 to 2.0 fold improvement over native CelA (SEQ ID NO: 4)) | 
2 | B2 | + (+ = 1.1 to 2.0 fold improvement over native CelA (SEQ ID NO: 4)) | 
3 | B3 |  | +++ (+++ = 6 to 13 fold improvement over control Variant No. 2)
4 | B4 |  | +++ (+++ = 6 to 13 fold improvement over control Variant No. 2)
5 | B5 |  | +++ (+++ = 6 to 13 fold improvement over control Variant No. 2)
6 | B6 |  | +++ (+++ = 6 to 13 fold improvement over control Variant No. 2)
7 | B7 |  | +++ (+++ = 6 to 13 fold improvement over control Variant No. 2)
8 | B8 |  | +++ (+++ = 6 to 13 fold improvement over control Variant No. 2)
9 | B9 |  | +++ (+++ = 6 to 13 fold improvement over control Variant No. 2)
10 | B10 |  | +++ (+++ = 6 to 13 fold improvement over control Variant No. 2)
11 | B11 | + (+ = 1.1 to 2.0 fold improvement over native CelA (SEQ ID NO: 4)) | 
12 | B12 |  | +++ (+++ = 6 to 13 fold improvement over control Variant No. 2)
13 | B13 |  | ++ (++ = 1.1 to 6 fold improvement over control Variant No. 2)
14 | B14 | + (+ = 1.1 to 2.0 fold improvement over native CelA (SEQ ID NO: 4)) | 
15 | B15 |  | +++ (+++ = 6 to 13 fold improvement over control Variant No. 2)
16 | B16 | + (+ = 1.1 to 2.0 fold improvement over native CelA (SEQ ID NO: 4)) | 
17 | B17 |  | ++ (++ = 1.1 to 6 fold improvement over control Variant No. 2)
18 | B18 |  | +++ (+++ = 6 to 13 fold improvement over control Variant No. 2)
19 | B19 |  | +++ (+++ = 6 to 13 fold improvement over control Variant No. 2)
20 | B20 | + (+ = 1.1 to 2.0 fold improvement over native CelA (SEQ ID NO: 4)) | 

Row | Molecule | Fold improvement over wildtype CelA | Fold improvement over Control Variant No. 5 from Table 2A
21 | B21 |  | ++ (++ = 1.1 to 6 fold improvement over control Variant No. 2)
22 | B22 | + (+ = 1.1 to 2.0 fold improvement over native CelA (SEQ ID NO: 4)) | 
23 | B23 |  | ++ (++ = 1.1 to 6 fold improvement over control Variant No. 2)
24 | B24 |  | +++ (+++ = 6 to 13 fold improvement over control Variant No. 2)
25 | B25 | + (+ = 1.1 to 2.0 fold improvement over native CelA (SEQ ID NO: 4)) | 
26 | B26 | + (+ = 1.1 to 2.0 fold improvement over native CelA (SEQ ID NO: 4)) | 
27 | B27 |  | +++ (+++ = 6 to 13 fold improvement over control Variant No. 2)
28 | B28 |  | +++ (+++ = 6 to 13 fold improvement over control Variant No. 2)
29 | B29 |  | ++ (++ = 1.1 to 6 fold improvement over control Variant No. 2)
30 | B30 | + (+ = 1.1 to 2.0 fold improvement over native CelA (SEQ ID NO: 4)) | 
31 | B31 |  | +++ (+++ = 6 to 13 fold improvement over control Variant No. 2)
32 | B32 |  | +++ (+++ = 6 to 13 fold improvement over control Variant No. 2)
33 | B33 | + (+ = 1.1 to 2.0 fold improvement over native CelA (SEQ ID NO: 4)) | 
34 | B34 |  | +++ (+++ = 6 to 13 fold improvement over control Variant No. 2)
35 | B35 |  | ++ (++ = 1.1 to 6 fold improvement over control Variant No. 2)
36 | B36 | + (+ = 1.1 to 2.0 fold improvement over native CelA (SEQ ID NO: 4)) | 
37 | B37 | + (+ = 1.1 to 2.0 fold improvement over native CelA (SEQ ID NO: 4)) | 
38 | B38 |  | ++ (++ = 1.1 to 6 fold improvement over control Variant No. 2)
39 | B39 |  | ++ (++ = 1.1 to 6 fold improvement over control Variant No. 2)
